# Test system: aspRS-OB wild type (anticodon-binding OB-fold domain of aspartyl-tRNA synthetase) (Pyrobaculum aerophilum)
# Assay: pulldown
# Settings: phage binding to immobilised tRNA; RNase A elution; VCS-M13 without display 1.42
substance,measurement,value
"asp-tRNA (P. aerophilum, in vitro transcript)",binding signal (fold recovery over beads only),190
